From the DeepSol protein solubility set

Experiment: soluble on expression in E. coli; label from the status in PepcDB or PDB records

Row | Sequence | soluble on expression in E. coli
1 | MPILIRNIVLAPGEGDDVLGTRVAERFGVPERDIQSLHLVRKSIDARRKPRVIIVCTVQCRLLDEAGFLVRHGHDPDVKAVKEEPQPVFPRLAGGGRIVIVGMGPAGLFAALRLAEYGLAPTILERGRPVEERTRDVQAFWSLGQLDTESNVQFGEGGAGTFSDGKLTTRVNDSRIGYVLQKFVDFGASPEILHLAKPHVGTDQLRRVVAGIRQGLLAAGCDIRFRSRVTDIVSREGRVGTVIVNGTDEIAADALVLAPGHSARDTYEMLARRGVHLQAKPFAMGVRVEHPQELINGIQYGKGHHPALPPADYALAHNDRRTGRSAYSFCMCPGGVVVAGSSEEGGVVTNGMSAHLRNTPFANSALVVTVGPDDFGSSSPLAGVEFQRHWERRAFEAGGGGYRAPAQNLLSFLGMKGGKGVSSSYRPRVTETDLSRVLPAAVTGTLREALPTFDRRMRGFVTAEATLTGVETRTSAPVRIVRGEDCQSVSLQGLYPTGEGAGYAGGIMSAALDGIRVADIIAGKMTAETRSAILEHHHHHH | not soluble
2 | IDKIENYEQSTSQLREEIKTLYNEVIDIGKKLSQERRRVARELRDHIVSEIQNLQMKDANLEISFKPLDEPTIEGIEFVEFLISPNRGEPLKSLNKIASGGELSRIMLALKSIFVKSRGQTAILFDEVDSGVSGQAAQKMAEKMRDIAQYIQVICISHLPQVASMSDHHLLISKASNADRTTTQVKELKDENKIDEIARMISGASVTELTRENAKEMIKQNHNI | not soluble
3 | AENNNLKLASTMEGRVEQLAEQRQVIEAGGGERRVEKQHSQGKQTARERLNNLLDPHSFDEVGAFRKHRTTLFGMDKAVVPADGVVTGRGTILGRPVHAASQDFTVMGGSAGETQSTKVVETMEQALLTGTPFLFFYDSGGARIQEGIDSLSGYGKMFFANVKLSGVVPQIAIIAGPCAGGASYSPALTDFIIMTKKAHMFITGPQVIKSVTGEDVTADELGGAEAHMAISGNIHFVAEDDDAAELIAKKLLSFLPQNNTEEASFVNPNNDVSPNTELRDIVPIDGKKGYDVRDVIAKIVDWGDYLEVKAGYATNLVTAFARVNGRSVGIVANQPSVMSGCLDINASDKAAEFVNFCDSFNIPLVQLVDVPGFLPGVQQEYGGIIRHGAKMLYAYSEATVPKITVVLRKAYGGSYLAMCNRDLGADAVYAWPSAEIAVMGAEGAANVIFRKEIKAADDPDAMRAEKIEEYQNAFNTPYVAAARGQVDDVIDPADTRRKIASALEMYATKRQTRPAKKHGNFPC | soluble
4 | MSLDKIRYGIMSTAQIVPRFVAGLRESAQAEVRGIASRRLENAQKMAKELAIPVAYGSYEELCKDETIDIIYIPTYNQGHYSAAKLALSQGKPVLLEKPFTLNAAEAEELFAIAQEQGVFLMEAQKSVFLPITQKVKATIQEGGLGEILWVQSVTAYPNVDHIPWFYSREAGGGALHGSGSYPLQYLQYVLGKEIQEVTGTATYQQGATDSQCNLALKFAEGTLGNIFINVGLKIPSEMTICGTKGQIVIPNFWKTDCAYYTDAQGNTVKWSEQFTSEFTYEINHVNQCLQDKKLTSPVMTKELTIATVKIVESFYQEWFDNEGHHHHHH | soluble
5 | MGSDKIHHHHHHMKSQWECFLQNLGVWEGSFSNFSPEGTLLNDTSSRLCLEGLNNNQTVRLTLSRSGKDDVIREFRSVGGGLLFFENGSFSEGLIQLGPFSEFGGELAFVHENRRLRLVQLFDRNGHLNGLTLIREHLAGTPVAERPLLQINDLLGEWRGQAVTIYRDLRPPDIYSTTLKIQLDDAGRLMQSTSFGERTITSTATIKGSIVLFDQDPEKQVQVLLLPDGASATSPLKVQLRQPLFLEAGWLIQSDLRQRMIRSYNDKGEWVSLTLVTEERV | not soluble
6 | MIRRRHSTTRIDRRPDGLTIYYKRANDDMEEEMLRVSVKPEGKNINDSLRSSKSSSSPPSRNSSLNLKTLKKDRKSKEGKPKSSSKHGKRMTSRAIHVSKKWSQFNRREDKTDYLDDETMQILEDLKILNCKIRKRFQIGTTCPHSLAKTDILSSSQSSKSQKSSTTTSSPVLTAVAYDYRGIPLTAPTVFPGARSEKTRETTRKAARAFARMEKEREDANNSSSRSRKTYQSRSPTGSEDSSPVIKLTRVSSGTRFPGASSPGTRERSRLMLKQCAMKKQLDEIARSLKSSKKSRKSMKSKKEKKSKPASLKTIYSKM | not soluble
7 | MSLGMASHPPIPILELADHIERLKANDNLKFSQEYESIDPGQQFTWEHSNLEVNKPKNRYANVIAYDHSRVLLSAIEGIPGSDYVNANYIDGYRKQNAYIATQGSLPETFGDFWRMIWEQRSATVVMMTKLEERSRVKCDQYWPSRGTETHGLVQVTLLDTVELATYCVRTFALYKNGSSEKREVRQFQFTAWPDHGVPEHPTPFLAFLRRVKTCNPPDAGPMVVHCSAGVGRTGCFIVIDAMLERIKHEKTVDIYGHVTLMRAQRNYMVQTEDQYIFIHDALLEAVTCGNTEVPARNLYAYIQKLTQIETGENVTGMELEFKRLEGHHHHHH | soluble
8 | SKIVKIIGREIIDSRGNPTVEAEVHLEGGFVGMAAAPSGASTGSREALELRDGDKSRFLGKGVTKAVAAVNGPIAQALIGKDAKDQAGIDKIMIDLDGTENKSKFGANAILAVSLANAKAAAAAKGMPLYEHIAELNGTPGKYSMPVPMMNIINGGEHADNNVDIQEFMIQPVGAKTVKEAIRMGSEVFHHLAKVLKAKGMNTAVGDEGGYAPNLGSNAEALAVIAEAVKAAGYELGKDITLAMDCAASEFYKDGKYVLAGEGNKAFTSEEFTHFLEELTKQYPIVSIEDGLDESDWDGFAYQTKVLGDKIQLVGDDLFVTNTKILKEGIEKGIANSILIKFNQIGSLTETLAAIKMAKDAGYTAVISHRSGETEDATIADLAVGTAAGQIKTGSMSRSDRVAKYNQLIRIEEALGEKAPYNGRKEIKGQA | soluble
9 | MINRRYELFKDVSDADWNDWRWQVRNRIETVEELKKYIPLTKEEEEGVAQCVKSLRMAITPYYLSLIDPNDPNDPVRKQAIPTALELNKAAADLEDPLHEDTDSPVPGLTHRYPDRVLLLITDMCSMYCRHCTRRRFAGQSDDSMPMERIDKAIDYIRNTPQVRDVLLSGGDALLVSDETLEYIIAKLREIPHVEIVRIGSRTPVVLPQRITPELVNMLKKYHPVWLNTHFNHPNEITEESTRACQLLADAGVPLGNQSVLLRGVNDCVHVMKELVNKLVKIRVRPYYIYQCDLSLGLEHFRTPVSKGIEIIEGLRGHTSGYCVPTFVVDAPGGGGKTPVMPNYVISQSHDKVILRNFEGVITTYSEPINYTPGCNCDVCTGKKKVHKVGVAGLLNGEGMALEPVGLERNKRHVQE | soluble
10 | MGSDKIHHHHHHMNQFKMSLFLPPISPVKDSATGRTVQPPTLTPYKEITLQEVYKLITSSERLKTLTETVRRAAENGDEKAYRMLKQQTLPYVTPCGVFSYRKSDSLTGPSGLIVVDIDHLDSRGEAEKLKRQLFDDRLLRPVLAFTSPGGRGVKAFIPYDLARIPDTRQNTSENIHWAMNYVQAIYDSHPDGEDKKTSRSGKGVDRSGKDLVRACFLSYDEEALIRREI | not soluble
11 | MGWCVMAVLVDSETRVLVQGITGREGSFHAKAMLEYGTKVVAGVTPGKGGSEVHGVPVYDSVKEALAEHPEINTSIVFVPAPFAPDAVYEAVDAGIRLVVVITEGIPVHDTMRFVNYARQKGATIIGPNCPGAITPGQAKVGIMPGHIFKEGGVAVVSRSGTLTYEISYMLTRQGIGQSTVIGIGGDPIVGLSFTEALKLFQEDPQTEALVLIGEIGGDMEERAAEMIKKGEFTKPVIAYIAGRTAPPEKRMGHAGAIIMMGTGTYEGKVKALREAGVEVAETPFEVPELVRKALRR | soluble
12 | MNGTKQQRRRGDTRQRIQDVALGLFAEQGYEKTSLREIAESLDVTKAALYYHFKTKEEILVSIFEDLSRPLEDLIEWGREQPHTLETKQEIIRRYSEALAGAAPLFRFMQENQATVRDLRIGELFKHRMFGLRDILMDPEADLVDQVRCISALFTLHAGMFVLRDLEGDPEEQRAAVLEVATDLITQAHRGAAGA | not soluble
13 | MRYFPLFLDLTNKPVLVVGGGEVACRKIDALLRADAKVTVISPQVAPALQAWIEQGKCHWIQHFYSSHWLDKRYVQVWATTDNPELNHQVYKDAKEQGILVNVVDDQPYCDFITPSMIERGRIQLAISSGGASPVLIRNIRETLEAVLAQNLALLADFGASKRNSIKDFLPSVDLRRQFWERFFAHPEVKNAQDRESLERIYIHLLTQSTDKVSATTWIEFGADVELLSLKALRYMQQAELVLHTQDCPFVFVDLCRRDAQRQSFNSSVELSTLLLQAQQETQNVCVLIPSGSSEYALLQGKATVLKMAQQG | not soluble
14 | DEAMLKIEQQEVVKNLPVGSKLVQLKYAGHSTDEPLLNQIYKEFEVTANILYGNIEILDGIPVGEMVVILSGDEEKLRQACQAITDSQVQLTLLKEGG | not soluble
